Among the data in US20080213284A1 are concentration and avidity values, retold here.

The target of assay [1] is receptors in NIH 3T3 cells (not identified in the filing). Briefly: flow cytometry on NIH 3T3 cells, FITC anti-human IgG Fc. A general note: A flow cytometer gives signals particle by particle.
The target of assay [2] is receptor on VERO E6 cells (not identified in the filing). Briefly: flow cytometry on VERO E6 cells, FITC anti-human IgG Fc.
The target is the same in assay [3].

Regarding “S3-Fc fusion protein (from UniProt P59594 667-999)”, the concentration at which it bound in assay [1] worked out at 0.1 µg/mL. “S2-Fc fusion protein (from UniProt P59594 334-666)”: the results for the concentration at which it bound in assay [2] and in assay [1] were 0.1 µg/mL and 1 µg/mL, respectively. Besides, the avidity in assay [3] came out at 1 µM. On to “S1-Fc fusion protein (from UniProt P59594 14-333)”, for which the concentration at which it bound in assay [2] was found to be 1 µg/mL.
